The values that follow come from paper PMC8437459.

In this data set the target is T1, MgaSpn (Streptococcus pneumoniae D39 (JH1900)) (UniProt A0A0H2ZN44).
T1 sequence: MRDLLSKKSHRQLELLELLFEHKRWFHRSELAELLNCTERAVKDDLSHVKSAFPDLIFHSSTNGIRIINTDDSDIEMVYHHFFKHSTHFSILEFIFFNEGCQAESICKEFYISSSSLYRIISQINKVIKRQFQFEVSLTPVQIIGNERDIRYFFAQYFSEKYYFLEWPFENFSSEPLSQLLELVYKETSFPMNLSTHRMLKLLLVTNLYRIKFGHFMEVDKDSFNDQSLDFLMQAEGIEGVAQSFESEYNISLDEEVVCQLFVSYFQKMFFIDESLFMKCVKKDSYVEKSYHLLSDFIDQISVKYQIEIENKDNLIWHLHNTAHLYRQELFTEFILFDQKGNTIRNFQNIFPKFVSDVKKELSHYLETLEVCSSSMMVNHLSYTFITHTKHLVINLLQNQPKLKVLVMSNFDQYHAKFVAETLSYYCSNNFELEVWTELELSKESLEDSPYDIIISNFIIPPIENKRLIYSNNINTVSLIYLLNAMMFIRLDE
The experiment in a line: EMSA. In general terms: In EMSA bound probe runs differently from free probe, usually more slowly.

On to “TACACATCTGCTTCTAAAATATTGTTAGAAAACGATTTGACTGTCCTGATCAATTTGTCATGTTCTTATTTCATTTTACTATATTTTTGGTTCGCGGGAAGTCTACTAAGATACTTAAAGATGCAGATAGTGAAAAAAGGTGTAGACATTACCGTAAAAAAGTGATATAATCGTAAGATGTTCAATGTATAGGTGTTAATCATGAGTAGACGTTTTAA (double strand) [Pcps probe (EMSA)]”, for which the binding result is given as “binds”.
